From the supplement of paper PMC11316812
± gives the standard deviation of the averaged measurements.

How the values were obtained:
[1] = test system: MCF7; test: percentage of EdU-negative (G0-arrested) nuclei per well, 72 h; higher = more G0 arrest; settings: reference: sequence is the full UniProt precursor, the tested protein was the secreted form or ectodomain
[2] = test system: hTERT-HMEC; test: as above; settings: reference: sequence is the full UniProt precursor, the tested protein was the secreted form or ectodomain
[3] = protein concentration 0.03125 µM
[4] = protein concentration 0.3125 µM
[5] = protein concentration 0.00828571 µM
[6] = protein concentration 0.0828571 µM
[7] = protein concentration 0.0225 µM
[8] = protein concentration 0.0211429 µM
[9] = protein concentration 0.211429 µM
[10] = protein concentration 0.0220325 µM
[11] = protein concentration 0.220325 µM
[12] = protein concentration 0.0325714 µM
[13] = protein concentration 0.325714 µM
[14] = protein concentration 0.0155 µM
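Also: secreted proteins added to cultured cells, EdU pulse at the end, nuclei found by Hoechst imaging, EdU status from nuclear versus surrounding ring intensity ratio, PBS as neutral control.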

Sequence	percentage of EdU-negative [1, 7]	percentage of EdU-negative ([1]; protein concentration 0.225 µM)	percentage of EdU-negative [2, 7]	percentage of EdU-negative ([2]; protein concentration 0.225 µM)	also measured
MGHPPLLPLLLLLHTCVPASWGLRCMQCKTNGDCRVEECALGQDLCRTTIVRLWEEGEELELVEKSCTHSEKTNRTLSYRTGLKITSLTEVVCGLDLCNQGNSGRAVTYSRSRYLECISCGSSDMSCERGRHQSLQCRSPEEQCLDVVTHWIQEGEEGRPKDDRHLRGCGYLPGCPGSNGFHNNDTFHFLKCCNTTKCNEGPILELENLPQNGRQCYSCKGNSTHGCSSEETFLIDCRGPMNQCLVATGTHEPKNQSYMVRGCATASMCQHAHLGDAFSMNHIDVSCCTKSGCNHPDLDVQYRSGAAPQPGPAHLSLTITLLMTARLWGGTLLWT					percentage of EdU-negative [1, 3]: 23.5 ± 1.9%; percentage of EdU-negative [1, 4]: 21 ± 1.2%; percentage of EdU-negative [2, 3]: 5.81 ± 0.25%; percentage of EdU-negative [2, 4]: 5.79 ± 0.076%
MWAQLLLGMLALSPAIAEELPNYLVTLPARLNFPSVQKVCLDLSPGYSDVKFTVTLETKDKTQKLLEYSGLKKRHLHCISFLVPPPAGGTEEVATIRVSGVGNNISFEEKKKVLIQRQGNGTFVQTDKPLYTPGQQVYFRIVTMDSNFVPVNDKYSMVELQDPNSNRIAQWLEVVPEQGIVDLSFQLAPEAMLGTYTVAVAEGKTFGTFSVEEYVLPKFKVEVVEPKELSTVQESFLVKICCRYTYGKPMLGAVQVSVCQKANTYWYREVEREQLPDKCRNLSGQTDKTGCFSAPVDMATFDLIGYAYSHQINIVATVVEEGTGVEANATQNIYISPQMGSMTFEDTSNFYHPNFPFSGKIRVRGHDDSFLKNHLVFLVIYGTNGTFNQTLVTDNNGLAPFTLETSGWNGTDVSLEGKFQMEDLVYNPEQVPRYYQNAYLHLRPFYSTTRSFLGIHRLNGPLKCGQPQEVLVDYYIDPADASPDQEISFSYYLIGKGSLVMEGQKHLNSKKKGLKASFSLSLTFTSRLAPDPSLVIYAIFPSGGVVADKIQFSVEMCFDNQVSLGFSPSQQLPGAEVELQLQAAPGSLCALRAVDESVLLLRPDRELSNRSVYGMFPFWYGHYPYQVAEYDQCPVSGPWDFPQPLIDPMPQGHSSQRSIIWRPSFSEGTDLFSFFRDVGLKILSNAKIKKPVDCSHRSPEYSTAMGAGGGHPEAFESSTPLHQAEDSQVRQYFPETWLWDLFPIGNSGKEAVHVTVPDAITEWKAMSFCTSQSRGFGLSPTVGLTAFKPFFVDLTLPYSVVRGESFRLTATIFNYLKDCIRVQTDLAKSHEYQLESWADSQTSSCLCADDAKTHHWNITAVKLGHINFTISTKILDSNEPCGGQKGFVPQKGRSDTLIKPVLVKPEGVLVEKTHSSLLCPKGKVASESVSLELPVDIVPDSTKAYVTVLGDIMGTALQNLDGLVQMPSGCGEQNMVLFAPIIYVLQYLEKAGLLTEEIRSRAVGFLEIGYQKELMYKHSNGSYSAFGERDGNGNTWLTAFVTKCFGQAQKFIFIDPKNIQDALKWMAGNQLPSGCYANVGNLLHTAMKGGVDDEVSLTAYVTAALLEMGKDVDDPMVSQGLRCLKNSATSTTNLYTQALLAYIFSLAGEMDIRNILLKQLDQQAIISGESIYWSQKPTPSSNASPWSEPAAVDVELTAYALLAQLTKPSLTQKEIAKATSIVAWLAKQHNAYGGFSSTQDTVVALQALAKYATTAYMPSEEINLVVKSTENFQRTFNIQSVNRLVFQQDTLPNVPGMYTLEASGQGCVYVQTVLRYNILPPTNMKTFSLSVEIGKARCEQPTSPRSLTLTIHTSYVGSRSSSNMAIVEVKMLSGFSPMEGTNQLLLQQPLVKKVEFGTDTLNIYLDELIKNTQTYTFTISQSVLVTNLKPATIKVYDYYLPDEQATIQYSDPCE [A8K2U0]					percentage of EdU-negative [1, 5]: 23.3 ± 1.1%; percentage of EdU-negative [1, 6]: 29.5 ± 1.8%; percentage of EdU-negative [2, 5]: 5.09 ± 0.24%; percentage of EdU-negative [2, 6]: 5.43 ± 0.39%
MQGPWVLLLLGLRLQLSLGVIPAEEENPAFWNRQAAEALDAAKKLQPIQKVAKNLILFLGDGLGVPTVTATRILKGQKNGKLGPETPLAMDRFPYLALSKTYNVDRQVPDSAATATAYLCGVKANFQTIGLSAAARFNQCNTTRGNEVISVMNRAKQAGKSVGVVTTTRVQHASPAGTYAHTVNRNWYSDADMPASARQEGCQDIATQLISNMDIDVILGGGRKYMFPMGTPDPEYPADASQNGIRLDGKNLVQEWLAKHQGAWYVWNRTELMQASLDQSVTHLMGLFEPGDTKYEIHRDPTLDPSLMEMTEAALRLLSRNPRGFYLFVEGGRIDHGHHEGVAYQALTEAVMFDDAIERAGQLTSEEDTLTLVTADHSHVFSFGGYTLRGSSIFGLAPSKAQDSKAYTSILYGNGPGYVFNSGVRPDVNESESGSPDYQQQAAVPLSSETHGGEDVAVFARGPQAHLVHGVQEQSFVAHVMAFAACLEPYTACDLAPPACTTDAAHPVAASLPLLAGTLLLLGASAAP	24.8 ± 1.8%	24.4 ± 0.42%	5.37 ± 0.33%	6.16 ± 1.5%	
MSALWLLLGLLALMDLSESSNWGCYGNIQSLDTPGASCGIGRRHGLNYCGVRASERLAEIDMPYLLKYQPMMQTIGQKYCMDPAVIAGVLSRKSPGDKILVNMGDRTSMVQDPGSQAPTSWISESQVSQTTEVLTTRIKEIQRRFPTWTPDQYLRGGLCAYSGGAGYVRSSQDLSCDFCNDVLARAKYLKRHGF [Q8N1E2]	25.6 ± 2%	25.2 ± 0.58%	4.76 ± 1.4%	6.97 ± 0.29%	
MMDIYVCLKRPSWMVDNKRMRTASNFQWLLSTFILLYLMNQVNSQKKGAPHDLKCVTNNLQVWNCSWKAPSGTGRGTDYEVCIENRSRSCYQLEKTSIKIPALSHGDYEITINSLHDFGSSTSKFTLNEQNVSLIPDTPEILNLSADFSTSTLYLKWNDRGSVFPHRSNVIWEIKVLRKESMELVKLVTHNTTLNGKDTLHHWSWASDMPLECAIHFVEIRCYIDNLHFSGLEEWSDWSPVKNISWIPDSQTKVFPQDKVILVGSDITFCCVSQEKVLSALIGHTNCPLIHLDGENVAIKIRNISVSASSGTNVVFTTEDNIFGTVIFAGYPPDTPQQLNCETHDLKEIICSWNPGRVTALVGPRATSYTLVESFSGKYVRLKRAEAPTNESYQLLFQMLPNQEIYNFTLNAHNPLGRSQSTILVNITEKVYPHTPTSFKVKDINSTAVKLSWHLPGNFAKINFLCEIEIKKSNSVQEQRNVTIKGVENSSYLVALDKLNPYTLYTFRIRCSTETFWKWSKWSNKKQHLTTEASPSKGPDTWREWSSDGKNLIIYWKPLPINEANGKILSYNVSCSSDEETQSLSEIPDPQHKAEIRLDKNDYIISVVAKNSVGSSPPSKIASMEIPNDDLKIEQVVGMGKGILLTWHYDPNMTCDYVIKWCNSSRSEPCLMDWRKVPSNSTETVIESDEFRPGIRYNFFLYGCRNQGYQLLRSMIGYIEELAPIVAPNFTVEDTSADSILVKWEDIPVEELRGFLRGYLFYFGKGERDTSKMRVLESGRSDIKVKNITDISQKTLRIADLQGKTSYHLVLRAYTDGGVGPEKSMYVVTKENSVGLIIAILIPVAVAVIVGVVTSILCYRKREWIKETFYPDIPNPENCKALQFQKSVCEGSSALKTLEMNPCTPNNVEVLETRSAFPKIEDTEIISPVAERPEDRSDAEPENHVVVSYCPPIIEEEIPNPAADEAGGTAQVIYIDVQSMYQPQAKPEEEQENDPVGGAGYKPQMHLPINSTVEDIAAEEDLDKTAGYRPQANVNTWNLVSPDSPRSIDSNSEIVSFGSPCSINSRQFLIPPKDEDSPKSNGGGWSFTNFFQNKPND					percentage of EdU-negative [1, 8]: 24.2 ± 2%; percentage of EdU-negative [1, 9]: 26.8 ± 0.8%; percentage of EdU-negative [2, 8]: 4.99 ± 0.47%; percentage of EdU-negative [2, 9]: 7.62 ± 0.7%
MAAFPHKIIFFLVCSTLTHVAFSGIFNKRDFTRWPKPRCKMYIPLDPDYNADCPNVTAPVCASNGHTFQNECFFCVEQREFHYRIKFEKYGKCD [Q1W4C9]	26.8 ± 1.7%	27.7 ± 0.31%	5.06 ± 0.42%	7.07 ± 0.77%	
MQRLRWLRDWKSSGRGLTAAKEPGARSSPLQAMRILQLILLALATGLVGGETRIIKGFECKPHSQPWQAALFEKTRLLCGATLIAPRWLLTAAHCLKPRYIVHLGQHNLQKEEGCEQTRTATESFPHPGFNNSLPNKDHRNDIMLVKMASPVSITWAVRPLTLSSRCVTAGTSCLISGWGSTSSPQLRLPHTLRCANITIIEHQKCENAYPGNITDTMVCASVQEGGKDSCQGDSGGPLVCNQSLQGIISWGQDPCAITRKPGVYTKVCKYVDWIQETMKNN [Q9UBX7]	27.509 ± 0.019%	25.5 ± 1.5%	5.31 ± 0.64%	6.15 ± 0.74%	
MAGLMTIVTSLLFLGVCAHHIIPTGSVVIPSPCCMFFVSKRIPENRVVSYQLSSRSTCLKAGVIFTTKKGQQFCGDPKQEWVQRYMKNLDAKQKKASPRARAVAVKGPVQRYPGNQTTC					percentage of EdU-negative [1, 10]: 23.9 ± 1.6%; percentage of EdU-negative [1, 11]: 24.7 ± 0.47%; percentage of EdU-negative [2, 10]: 4.96 ± 0.78%; percentage of EdU-negative [2, 11]: 5.694 ± 0.035%
MLKPSLPFTSLLFLQLPLLGVGLNTTILTPNGNEDTTADFFLTTMPTDSLSVSTLPLPEVQCFVFNVEYMNCTWNSSSEPQPTNLTLHYWYKNSDNDKVQKCSHYLFSEEITSGCQLQKKEIHLYQTFVVQLQDPREPRRQATQMLKLQNLVIPWAPENLTLHKLSESQLELNWNNRFLNHCLEHLVQYRTDWDHSWTEQSVDYRHKFSLPSVDGQKRYTFRVRSRFNPLCGSAQHWSEWSHPIHWGSNTSKENPFLFALEAVVISVGSMGLIISLLCVYFWLERTMPRIPTLKNLEDLVTEYHGNFSAWSGVSKGLAESLQPDYSERLCLVSEIPPKGGALGEGPGASPCNQHSPYWAPPCYTLKPET					percentage of EdU-negative [1, 12]: 24.7 ± 0.8%; percentage of EdU-negative [1, 13]: 26.37 ± 0.19%; percentage of EdU-negative [2, 12]: 5.08 ± 0.64%; percentage of EdU-negative [2, 13]: 5.6 ± 1.3%
MVPEVRVLSSLLGLALLWFPLDSHARARPDMFCLFHGKRYSPGESWHPYLEPQGLMYCLRCTCSEGAHVSCYRLHCPPVHCPQPVTEPQQCCPKCVEPHTPSGLRAPPKSCQHNGTMYQHGEIFSAHELFPSRLPNQCVLCSCTEGQIYCGLTTCPEPGCPAPLPLPDSCCQACKDEASEQSDEEDSVQSLHGVRHPQDPCSSDAGRKRGPGTPAPTGLSAPLSFIPRHFRPKGAGSTTVKIVLKEKHKKACVHGGKTYSHGEVWHPAFRAFGPLPCILCTCEDGRQDCQRVTCPTEYPCRHPEKVAGKCCKICPEDKADPGHSEISSTRCPKAPGRVLVHTSVSPSPDNLRRFALEHEASDLVEIYLWKLVKGIFHLTQIKKVRKQDFQKEAQHFRLLAGPHEGHWNVFLAQTLELKVTASPDKVTKT [Q6WN34]					percentage of EdU-negative [1, 14]: 25.2 ± 1.1%; percentage of EdU-negative ([1]; protein concentration 0.155 µM): 27.3 ± 1.6%; percentage of EdU-negative [2, 14]: 5.6 ± 0.62%; percentage of EdU-negative ([2]; protein concentration 0.155 µM): 7.92 ± 0.96%
MLALLAASVALAVAAGAQDSPAPGSRFVCTALPPEAVHAGCPLPAMPMQGGAQSPEEELRAAVLQLRETVVQQKETLGAQREAIRELTGKLARCEGLAGGKARGAGATGKDTMGDLPRDPGHVVEQLSRSLQTLKDRLESLEHQLRANVSNAGLPGDFREVLQQRLGELERQLLRKVAELEDEKSLLHNETSAHRQKTESTLNALLQRVTELERGNSAFKSPDAFKVSLPLRTNYLYGKIKKTLPELYAFTICLWLRSSASPGIGTPFSYAVPGQANEIVLIEWGNNPIELLINDKVAQLPLFVSDGKWHHICVTWTTRDGMWEAFQDGEKLGTGENLAPWHPIKPGGVLILGQEQDTVGGRFDATQAFVGELSQFNIWDRVLRAQEIVNIANCSTNMPGNIIPWVDNNVDVFGGASKWPVETCEERLLDL	24.1 ± 0.47%	24.8 ± 0.78%	5.346 ± 0.033%	6.28 ± 1.3%	
MQRVSGLLSWTLSRVLWLSGLSEPGAARQPRIMEEKALEVYDLIRTIRDPEKPNTLEELEVVSESCVEVQEINEEEYLVIIRFTPTVPHCSLATLIGLCLRVKLQRCLPFKHKLEIYISEGTHSTEEDINKQINDKERVAAAMENPNLREIVEQCVLEPD [Q9H5X1]	24.6 ± 0.36%	26.4 ± 0.66%	5.26 ± 0.84%	5.56 ± 0.12%	
